Experimental data: patent US20130310310A1

Legend:
[1] = target: GLP-1 receptor
[2] = target: GLP-1 receptor; remark: listed apart in the source

Exendin-4 (peptide)
EC50, GLP-1 receptor agonistic activity (CRE-luciferase reporter in HEK293 cells) [1]: 1.93 nM

[Cys^21(mPEG5000-MAL)] Exendin-4 (peptide)
EC50 (nM), GLP-1 receptor agonistic activity (CRE-luciferase reporter in HEK293 cells) [2]: 22.5 nM
